This assay deals with voltage-dependent anion channel (VDAC) (rat (endogenous in rat cortex)) (UniProt Q9Z2L0). The experiment in a line: co-IP.
Chain of UniProt Q9Z2L0 (Q9Z2L0 whole entry): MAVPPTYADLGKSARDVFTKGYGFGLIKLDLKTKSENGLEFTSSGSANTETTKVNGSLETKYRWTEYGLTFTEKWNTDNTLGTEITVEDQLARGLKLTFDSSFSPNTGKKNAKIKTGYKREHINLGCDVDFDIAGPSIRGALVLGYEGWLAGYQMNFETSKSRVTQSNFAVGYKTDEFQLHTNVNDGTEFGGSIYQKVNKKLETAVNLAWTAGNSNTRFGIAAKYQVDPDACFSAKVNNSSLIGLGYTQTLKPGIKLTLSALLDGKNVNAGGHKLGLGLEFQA

With “Hexokinase II VDAC binding domain peptide (fused to Antennapedia homeo-domain)”, the percent reduction of HK1-VDAC binding at 100 µM peptide (lower VDAC band, VDAC3) worked out at 66.1% and the percent reduction of HK1-VDAC binding at 100 µM peptide (total VDAC) worked out at 50.4%.
